Source: patent US8615311B2, “Microelectorode array, methods for preparing the same and uses thereof” (Rutgers, The State University of New Jersey, priority 2010, dated 2013)

How the values were obtained:
Assay type in all cases: cell-based, rat
Myoblasts = assay: Myoblast fusion and differentiation into myotubes on surfaces adsorbed with different coatings
Experimental: Myoblasts were isolated and cultured as previously described. Briefly, pregnant Sprague Dawley rats were sacrificed by CO2 inhalation at gestational day 21, and pups were removed by Cesarean section. Hind limb muscles were removed, and tissue was finely minced and digested (20 min at 37° C.) in PBS containing 1.5 U/ml collagenase (type D, Roche, Mannheim, Germany) and 2.5 U/ml dispase (type II, Roche, Mannheim, Germany). Single cells were separated from debris, pelleted by centrifugation, and resuspended in growth medium consisting of Ham's F-10 medium plus 20% fetal bovine serum, 1% Penicillin/Streptomycin, (all from Invitrogen, Carlsbad, Calif.) and 2.5 ng/ml human b-FGF (Promega Corporation, Madison, Wis.). Cells were then plated into 75 cm^2 flasks and incubated for 24 hrs. Adherent cells were resuspended and plated onto PDMS substrates in differentiation medium consisting of Neurobasal medium including 2% B-27 supplement, 1% Penicillin/Streptomycin and 1% GlutaMAX (all from Invitrogen, Carlsbad, Calif.) at a surface density of 200,000 cells/cm^2. Prior to seeding, surfaces were plasma treated (O2 plasma for 120 S at 50 Watts) and adsorbed overnight with 40 μg/ml laminin (Sigma Aldrich, St. Louis, Mo.). Medium changes were performed every other day.

Spinal cord explants = assay: Axonal outgrowth from spinal cord explants with or without Ara-C in the medium; conditions: 1 μm Ara-C added to NB medium, after 13 days in culture, vs standard NB medium
Experimental: Spinal cord explants are prepared using procedures known in the art. Briefly, pregnant Sprague Dawley rats were sacrificed by CO2 inhalation at gestational day 15, and pups were removed by Cesarean section. Spinal cord was removed posteriorly and transferred to a PDMS-lined petri dish in a drop of medium. The cord is then bisected longitudinally and finely minced transversely into sections 200-300 μm thick. Sections were suspended in NB medium plus 1% GlutaMAX supplement and 2% B27 supplement. Explants were then plated onto chemically or topographically patterned glass substrates or MEAS, all of which had been adsorbed overnight with laminin at 40 μg/ml in 10 μL of medium. Explants can be precisely positioned on the growth substrate during this step. In this experiment, explants were positions with the explant body over three contacts in the top row of the MEA, allowing space for axonal outgrowth over the other contacts. After 5 min, allowing for initial adhesion, enough medium was added to just cover the explant, and it was placed in an incubator at 5% CO2 and 37 deg C. Medium was replaced every 2 days.
Explants were fixed and stained on DIV 13 to identify axonal and dendritic outgrowth. […] Five well-attached explants were imaged in each condition, and their outgrowth was quantified using ImageJ software (NIH, Bethesda Md.). […]

Hippocampal neurons = assay: Morphology and Sholl analysis (Bonfire program) of GFP-transfected hippocampal neurons treated with BDNF; conditions: 25 ng/ml BDNF
Experimental: Hippocampal neurons were isolated from E18 rat embryos and cultured. Briefly, embryos were removed by Cesarian section at 18 days gestation and decapitated. The hippocampi were manually dissected under a microscope, and cells were triturated with a fire polished glass pipette tip, counted on a hemocytometer, and plated at a density of ˜1800 cells per mm^2 on 35 mm petri plates (Corning) coated with 1 mg/ml poly-D-lysine (Sigma-Aldrich). Cultures were maintained in Neurobasal medium containing penicillin, streptomycin, glutamine, and B27 supplement (NB; all purchased from Invitrogen).
At 5 days in vitro (DIV5), cells were transfected with cDNA encoding GFP using Effectene (Qiagen). The low efficiency of this transfection technique in this cell system allows the easy identification of the processes associated with single neurons. In the BDNF treatment groups, treatment occurred from DIV7-10, during which regular NB was replaced with NB containing 25 ng/ml BDNF. […] Cultures were fixed in 4% paraformaldehyde on DIV10 and immunostained with rat anti-GFP (a gift from Dr. Shu-Chan Hsu, Rutgers University) and MAP-2 (Sigma-Aldrich). Neurons were imaged in the GFP channel at 200× using an Olympus Optical IX50 microscope with a Cooke Sensicam CCD cooled camera, fluorescence imaging system, and ImagePro software (MediaCybernetics). Images were acquired in 8-bit TIFF format, measuring 512×640 pixels.
An embodiment Bonfire program is a series of custom scripts written in, for example, MATLAB (MathWorks), although it will be appreciated that any suitable programming language may be employed. Neuronal morphology was digitized in three stages based on the initial images. In the first stage, the semi-automated tools available through the NeuronJ plugin to ImageJ (NIH, Bethesda Md.) were used to define all neurite positions (FIG. 6(A-B)). The data for each neurite are exported using NeuronJ in the form of a series of nodes with defined positions in the X-Y plane, where nodes belonging to an individual neurite segment are linked by association. These tools allow the user to guide the tracing of each neuritic segment with course resolution by hand but reduce tracing time by using a curve-fitting algorithm to fine-tune the exact location of the nodes defining the neurite position.
In the second stage, portions of the embodiment Bonfire program were used to convert the strings of nodes provided by NeuronJ into SWC format for further manipulation. NeuronStudio is then used to define the pattern of connectivity between neurite segments (FIG. 6(C)). The transformation of the data into SWC format allows for the linkage of the simple strings of nodes defined previously into more complex branching structures. After linking is complete, another component of the embodiment Bonfire program checks the resulting structure for errors and non-linkages (FIG. 6(D)), based on the assumption that each neuritic segment may only give rise to two or less daughter segments. […] These two steps fully determine the structure of each cell's neuritic arbor in 2-dimensional space and encode it in a digital format.
Using these digitized neuritic arbors, a second component of the embodiment Bonfire program was then used to perform process identification and extract the following metrics: number of primary neurites, number of secondary neurites, number of branch points per cell, number of terminal neurite tips per cell, and Sholl analysis performed with a 3.0 μm ring interval (FIG. 6(E)). Sholl analysis is performed conceptually by drawing concentric circles around a cell body at incrementally increasing radii and counting the number of times each circle crosses a neuritic segment. The number of intersections is graphed as a function of radial distance from the cell body to give a quantitative representation of how neurite density varies spatially. […]

[1] = DIV7-10, vs untreated control, data not shown

## laminin
Myoblasts; laminin adsorbed surfaces
  myoblast fusion and maturation into striated myotubes: robust
Myoblasts; surface adsorbed with the substance, data not shown
  myotube differentiation: promoted myotube differentiation

## Nc1ccn([C@@H]2O[C@H](CO)[C@@H](O)[C@@H]2O)c(=O)n1 [Ara-C]
Spinal cord explants
  axonal outgrowth length (maximum axonal extension from explant body): did not appreciably reduce

B1: BDNF: a well-studied extracellular factor that regulates neurite morphology (protein, UniProt P23560 19-247, looked up)
Neurotrophic factor BDNF …: APMKEANIRGQGGLAYPGVRTHGTLESVNGPKAGSRGLTSLADTFEHVIEELLDEDQKVRPNEENNKDADLYTSRVMLSSQVPLEPPLLFLLEEYKNYLDAANMSMRVRRHSDPARRGELSVCDSISEWVTAADKKTAVDMSGGTVTVLEKVPVSKGQLKQYFYETKCNPMGYTKEGCRGIDKRHWNSQCRTTQSYVRALTMDSKKRIGWRFIRIDTSCVCTLTIKRGR
Hippocampal neurons; DIV7-10, vs untreated control
  average number of branch points per cell: no change between conditions
  distal neurites (total Sholl curve): no effect on distal neurites
  number of primary neurites (primary extensions) per cell: statistically significant increase
  number of secondary neurites per cell: does not reach statistical significance
  number of terminal branches per cell: no change between conditions
Hippocampal neurons; [1]
  average process length: no significant change
  total arbor length: no significant change
Hippocampal neurons; DIV7-10, vs untreated control, global exposure in vitro
  proximal neurites within the first 35 μm of the soma (total Sholl curve): increases proximal neurites
Hippocampal neurons; DIV7-10, RIT labeling scheme Sholl analysis
  number of Sholl intersections with terminal neurites: increase
Hippocampal neurons; DIV7-10, segment identity-specific Sholl analysis
  number of Sholl intersections with primary neurites: increase
